Values of other authors as cited in US20190076452A1, “THERAPEUTIC COMBINATIONS FOR TREATING NEOPLASIA” (MEDIMMUNE LIMITED, priority 2014, published 2019).

Tested on: advanced melanoma
Conditions: compared to the standard of care (temozolomide or dacarbazine); cited from earlier work

B1: tremelimumab: human IgG2 monoclonal antibody highly selective for CTLA-4 (antibody)
VH: GVVQPGRSLRLSCAASGFTFSSYGMHWVRQAPGKGLEWVAVIWYDGSNKYYADSVKGRFTISRDNSKNTLYLQMNSLRAEDTAVYYCARDPRGATLYYYYYGMDVWGQGTTVTVSSASTKGPSVFPLAPCSRSTSESTAALGCLVKDYFPEPVTVSWNSGALTSGVH
VL: PSSLSASVGDRVTITCRASQSINSYLDWYQQKPGKAPKLLIYAASSLQSGVPSRFSGSGSGTDFTLTISSLQPEDFATYYCQQYYSTPFTFGPGTKVEIKRTVAAPSVFIFPPSDEQLKSGTASVVCLLNNFYPREAKV
For B1, the “overall survival of patients” value is given as “did not significantly increase”.
